Measurements: IntAct's records for PubMed 11579209

B1: Tyrosine-protein phosphatase non-receptor type 1 (Homo sapiens), P18031 (parent)
chain: MEMEKEFEQIDKSGSWAAIYQDIRHEASDFPCRVAKLPKNKNRNRYRDVSPFDHSRIKLHQEDNDYINASLIKMEEAQRSYILTQGPLPNTCGHFWEMVWEQKSRGVVMLNRVMEKGSLKCAQYWPQKEEKEMIFEDTNLKLTLISEDIKSYYTVRQLELENLTTQETREILHFHYTTWPDFGVPESPASFLNFLFKVRESGSLSPEHGPVVVHCSAGIGRSGTFCLADTCLLLMDKRKDPSSVDIKKVLLEMRKFRMGLIQTADQLRFSYLAVIEGAKFIMGDSSVQDQWKELSHEDLEPPPEHIPPPPRPPKRILEPHNGKCREFFPNHQWVKEETQEDKDCPIKEEKGSPLNAAPYGIESMSQDTEVRSRVVGGSLRGAQAASPAKGEPSLPEKDEDHALSYWKPFLVNMCVATVLTAGAYLCYRFLFNSNT

Variants of: B1
Details: with insr_human INSR

| effect of a mutation on the interaction | Variant |
| --- | --- |
| disrupting interaction | S50D |

Variants of: B1
Details: with insr_human INSR
Remark: another data set of the same source

| effect of a mutation on the interaction | Variant |
| --- | --- |
| decreasing interaction | S50A |
